Stoichiometry N data for one substance are collected here from PMC10882061.

For the assay, the target named is Env-K, stabilized HIV Env trimer of BG505 NFL2P gp140 with a C-terminal Peptide K (HIV-1 (BG505)). In words: SEC; Sephacryl S-300 after lectin affinity; peaks of aggregates, trimers and monomers; pooled trimer fractions also run on BN-PAGE. (Size exclusion chromatography separates by hydrodynamic size, large species first.)

Usually stoichiometry N stands for the number of molecules, sites or subunits per partner or assembly. As for “Env-K, stabilized HIV Env trimer of BG505 NFL2P gp140 with a C-terminal Peptide K”, the stoichiometry N came out at 3.
